For one data set, the target named is T1, GlgA–GlgB-WC (Waddlia chondrophila, UniProt D6YUJ8).
T1 construct: gene wcw_0437; natural GlgA-GlgB gene fusion, his-tagged, modified pET15b, E. coli BW25113 delta-glgA; crude extract on zymogram
T1 sequence (D6YUJ8 1-1463): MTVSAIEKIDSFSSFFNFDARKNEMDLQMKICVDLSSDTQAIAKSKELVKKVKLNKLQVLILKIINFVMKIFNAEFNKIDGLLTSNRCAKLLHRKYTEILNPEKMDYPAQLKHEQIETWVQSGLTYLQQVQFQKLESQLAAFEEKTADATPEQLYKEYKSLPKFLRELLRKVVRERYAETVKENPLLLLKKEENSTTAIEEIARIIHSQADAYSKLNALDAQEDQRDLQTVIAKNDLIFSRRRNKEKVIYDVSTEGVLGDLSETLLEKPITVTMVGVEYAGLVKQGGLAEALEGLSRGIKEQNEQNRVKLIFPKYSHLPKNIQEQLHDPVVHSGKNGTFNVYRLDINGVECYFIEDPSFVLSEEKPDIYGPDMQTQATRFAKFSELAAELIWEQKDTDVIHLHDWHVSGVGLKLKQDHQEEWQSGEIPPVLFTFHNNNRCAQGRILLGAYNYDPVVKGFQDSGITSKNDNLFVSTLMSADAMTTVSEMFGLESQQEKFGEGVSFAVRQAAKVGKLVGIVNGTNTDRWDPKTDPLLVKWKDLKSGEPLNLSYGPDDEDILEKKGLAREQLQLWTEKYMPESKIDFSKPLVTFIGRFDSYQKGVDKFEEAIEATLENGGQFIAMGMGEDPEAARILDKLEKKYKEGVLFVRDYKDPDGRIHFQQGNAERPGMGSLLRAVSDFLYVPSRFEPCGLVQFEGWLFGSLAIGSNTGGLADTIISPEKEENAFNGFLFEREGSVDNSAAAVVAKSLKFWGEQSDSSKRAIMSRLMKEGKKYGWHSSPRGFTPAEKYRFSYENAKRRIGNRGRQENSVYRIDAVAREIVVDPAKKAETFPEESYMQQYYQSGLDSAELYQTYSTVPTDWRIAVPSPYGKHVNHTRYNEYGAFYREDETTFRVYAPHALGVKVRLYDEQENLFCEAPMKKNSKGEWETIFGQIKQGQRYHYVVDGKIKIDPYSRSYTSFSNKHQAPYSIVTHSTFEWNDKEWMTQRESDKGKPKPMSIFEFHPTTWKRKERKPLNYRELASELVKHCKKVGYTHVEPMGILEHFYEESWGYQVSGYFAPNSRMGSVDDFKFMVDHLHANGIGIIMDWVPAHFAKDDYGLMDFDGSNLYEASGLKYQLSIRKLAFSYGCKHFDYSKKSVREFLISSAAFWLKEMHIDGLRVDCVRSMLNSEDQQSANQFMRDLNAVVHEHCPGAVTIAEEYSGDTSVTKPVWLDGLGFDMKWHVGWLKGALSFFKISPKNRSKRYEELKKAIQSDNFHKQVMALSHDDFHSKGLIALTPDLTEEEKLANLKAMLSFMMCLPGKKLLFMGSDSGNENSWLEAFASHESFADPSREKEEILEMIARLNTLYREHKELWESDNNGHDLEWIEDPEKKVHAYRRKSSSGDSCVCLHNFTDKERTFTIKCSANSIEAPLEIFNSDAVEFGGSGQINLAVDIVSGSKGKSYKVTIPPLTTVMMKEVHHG
Kind of data set: […]-glucosyl incorporation into glycogen; zymogram. The data set is classed as cell-based. Conditions: glycogen as acceptor, 30 °C; glycogen synthase domain; labelled compound.

A further data set deals with T2, GlgE-WC (Waddlia chondrophila, UniProt D6YT22).
T2 sequence (D6YT22 1-649): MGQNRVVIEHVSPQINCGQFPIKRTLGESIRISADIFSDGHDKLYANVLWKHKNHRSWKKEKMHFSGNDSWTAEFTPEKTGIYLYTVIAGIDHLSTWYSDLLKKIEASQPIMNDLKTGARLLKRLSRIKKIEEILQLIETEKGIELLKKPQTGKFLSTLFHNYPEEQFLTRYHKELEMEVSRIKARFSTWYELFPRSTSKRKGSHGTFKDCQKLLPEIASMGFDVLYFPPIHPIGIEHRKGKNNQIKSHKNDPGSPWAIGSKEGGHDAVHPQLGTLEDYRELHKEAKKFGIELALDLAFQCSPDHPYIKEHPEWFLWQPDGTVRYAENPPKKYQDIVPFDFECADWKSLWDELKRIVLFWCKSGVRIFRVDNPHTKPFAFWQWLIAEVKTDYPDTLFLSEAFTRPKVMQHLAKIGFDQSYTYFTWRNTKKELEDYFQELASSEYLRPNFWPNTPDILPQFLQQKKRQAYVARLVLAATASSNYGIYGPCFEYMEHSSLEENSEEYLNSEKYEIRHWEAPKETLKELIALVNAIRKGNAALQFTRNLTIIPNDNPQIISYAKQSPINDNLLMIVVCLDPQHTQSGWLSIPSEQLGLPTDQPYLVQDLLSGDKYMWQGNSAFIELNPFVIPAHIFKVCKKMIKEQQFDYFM
Put plainly: maltosyl transfer, FACE capillary electrophoresis and Pi release. The data set is classed as biochemical. Conditions: 30 °C.

Data set [1] deals with O=P(O)(O)O[C@H]1O[C@H](CO)[C@@H](O[C@H]2O[C@H](CO)[C@@H](O)[C@H](O)[C@H]2O)[C@H](O)[C@H]1O. Put plainly: purified protein. Conditions: 10 mM maltoheptaose as acceptor per Fig. 5 legend (b24 text assigns the acceptors the other way round), pH 6.8, 30 °C, positive cooperativity.
Data set [2] deals with OC[C@H]1O[C@H](O[C@H]2O[C@H](CO)[C@@H](O)[C@H](O)[C@H]2O)[C@H](O)[C@@H](O)[C@@H]1O. Put plainly: purified protein. Particulars: TreS domain, 1 mM MnCl2, no ATP, 125 mM imidazole pH 8, 150 mM NaCl, 30 °C.
In data set [3] the target is bifunctional TreS-Mak of Estrella lausannensis (trehalose synthase fused to maltokinase) (Estrella lausannensis). Kind of data set: SEC; Superose 6 10/300 GL, PBS (10 mM orthophosphate, 140 mM NaCl, pH 7.4), 4 °C, 0.3 mL/min; apparent molecular weight against standard proteins.
Data set [4] deals with the molecule itself. The description is as above.

On to `Nc1ncnc2c1ncn2[C@@H]1O[C@H](COP(=O)(O)OP(=O)(O)O[C@H]2O[C@H](CO)[C@@H](O)[C@H](O)[C@H]2O)[C@@H](O)[C@H]1O` [ADP-glc, ADP-glucose], for which the “14C-glucosyl incorporation into glycogen; zymogram” value on GlgA–GlgB-WC is recorded as “is functional but highly specific for ADP-glucose”.

Turning to `OC[C@H]1O[C@H](O[C@H]2[C@H](O)[C@@H](O)[C@@H](O[C@H]3[C@H](O)[C@@H](O)[C@@H](O[C@H]4[C@H](O)[C@@H](O)[C@@H](O[C@H]5[C@H](O)[C@@H](O)[C@@H](O[C@H]6[C@H](O)[C@@H](O)[C@@H](O[C@H]7[C@H](O)[C@@H](O)C(O)O[C@@H]7CO)O[C@@H]6CO)O[C@@H]5CO)O[C@@H]4CO)O[C@@H]3CO)O[C@@H]2CO)[C@H](O)[C@@H](O)[C@@H]1O` (stereo partly shown) [DP7, maltoheptaose], the “maltosyl transfer, FACE capillary electrophoresis and Pi release” value at GlgE-WC (acceptor with 1.6 mM M1P, also disproportionated without M1P) is “GlgE activities harbor an α-1,4-glucanotransferase activity exclusively with glucans composed of six or seven”. With `O=P(O)(O)O[C@H]1O[C@H](CO)[C@@H](O[C@H]2O[C@H](CO)[C@@H](O)[C@H](O)[C@H]2O)[C@H](O)[C@H]1O` [M1P, maltose-1-phosphate], at GlgE-WC (5 mM malto-oligosaccharide acceptors, 1.6 mM M1P), the “maltosyl transfer, FACE capillary electrophoresis and Pi release” value was “both GlgE activities enable the transfer the maltosyl moiety of M1P onto the glucan primer”.

On to GlgE-EL (Estrella lausannensis), for which, in data set [1], the K0.5 came to 0.33 ± 0.02 mM.

As usually defined, the Km is the concentration of substrate that gives half-maximal velocity. In the case of “TreS-Mak of Estrella lausannensis (Estrella lausannensis)”, the Michaelis-Menten constant (Km) in data set [2] is on record as 42.3 ± 2.7 mM. The stoichiometry N is the number of molecules, sites or subunits per partner or assembly. On to “bifunctional TreS-Mak of Estrella lausannensis (trehalose synthase fused to maltokinase) (enzyme)”, for which the stoichiometry N in data set [3] amounted to 2.

B1: GlgE of Estrella lausannensis (maltosyl-1-phosphate transferase; α-maltose-1-phosphate: 1,4-α-D-glucan 4-α-D-maltosyltransferase) (enzyme, UniProt A0A0H5DRC6 1-675, looked up)
chain: MSVSAAEKRQLLTQVKASGSMYTNTLHSIVIQNISPKPEPFGPAKRVLLEQVEVEADIFTDPHTKLEADLIVKAPGLRKTTRIPFHPLVNDRFKAVFVPDTPGTYSFFVEAWVNPAALWQEDLRKKQEARLDLTVDLQIGAALLVEVADLLPPEESVKLLQIAKKLREQKGAEAVAFDPEIARLGRLARPKSRQGVCSQEQEVFVTRKKALFSTWYELFPRSCSGTMRHGTFNDVVAKLPRISRMGFDVLYLPPIHPIGKTKRKGKNNALTALPDDPGSPWAVGSHEGGHDAIQRELGTLADFERLVKEAESLGIEIALDIALQCSPDHPYLKEHPEWFLKRPDGTYQYAENPPKKYEDIIPFHFTEDNKDTLFREILRIFLFWMKRGVRIFRVDNPHTKPFALWEYVIGEVRKVDSGVIFLAEAFTRPKIMHHLARIGFDQSYTYFTWRNTKWELTEYLTELTKTEARNYLRPNFFVNTPDILPESLQWGGRAAFLTRLILAATLSSSYGIYGPAFEQMLSEAVPGKEDYIDSEKYEIKPWDFEKKGTISETIEIVNRIRKENPALQATGNLEFYATDNDYLLAYGKQGPQGESLLIVVNLDHYHTQSGYVTLPLMHLGIQEKEPYLVDDLLSGERYIWEGERNYIQLSPHLVPAHIFRIRPKMLRENNFDYFI
notes: GlgE (maltosyl-1-phosphate transferase) of Estrella lausannensis, glgE gene amplified from genomic DNA; monomer of 75-76 kD; Cloned in pET15b; also called GlgE-EL; source: E. coli Rosetta (DE3)
B1: the “stoichiometry N” value in data set [4] was 2.

The values above are taken from paper PMC7935935, “Conservation of the glycogen metabolism pathway underlines a pivotal function of storage polysaccharides in Chlamydiae” (Communications Biology, 2021).
